According to patent US20230416313A1 (published 2023):

B1: CFH binding protein of SEQ ID NO: 5 (CID 209447) (designed binder)
chain: NAAEADDAQVSAAMEIIMLPNLTLEQAHSFIESLYRDPSVSKEVLGEAQKLNDSQAPK
B2: 209202 (protein)
chain: NAADLDEAQISAIFEIMDLPNLTWQQQEWFIDSLSDDPSVSKEVLGEAQKLNDSQAPK
B3: CFH binding protein of SEQ ID NO: 20 (CID 209864) (designed binder)
chain: IAAKFDEAQQAAFYEILHLPNLTELQRNHFIQTLRDDPSVSLWVLGLAQLLNDSQAPKIAAKFDEAQQHAFYTILHLENLTEEQRNAFIQSLRDDPSVSLEVLGEAIKLNISQAPK

Experiments:
[1] = biological target: T1, recombinant human complement factor H (CFH), isolated from moss (human, UniProt P08603 19-1231); assay: BLI; steady state
T1 chain: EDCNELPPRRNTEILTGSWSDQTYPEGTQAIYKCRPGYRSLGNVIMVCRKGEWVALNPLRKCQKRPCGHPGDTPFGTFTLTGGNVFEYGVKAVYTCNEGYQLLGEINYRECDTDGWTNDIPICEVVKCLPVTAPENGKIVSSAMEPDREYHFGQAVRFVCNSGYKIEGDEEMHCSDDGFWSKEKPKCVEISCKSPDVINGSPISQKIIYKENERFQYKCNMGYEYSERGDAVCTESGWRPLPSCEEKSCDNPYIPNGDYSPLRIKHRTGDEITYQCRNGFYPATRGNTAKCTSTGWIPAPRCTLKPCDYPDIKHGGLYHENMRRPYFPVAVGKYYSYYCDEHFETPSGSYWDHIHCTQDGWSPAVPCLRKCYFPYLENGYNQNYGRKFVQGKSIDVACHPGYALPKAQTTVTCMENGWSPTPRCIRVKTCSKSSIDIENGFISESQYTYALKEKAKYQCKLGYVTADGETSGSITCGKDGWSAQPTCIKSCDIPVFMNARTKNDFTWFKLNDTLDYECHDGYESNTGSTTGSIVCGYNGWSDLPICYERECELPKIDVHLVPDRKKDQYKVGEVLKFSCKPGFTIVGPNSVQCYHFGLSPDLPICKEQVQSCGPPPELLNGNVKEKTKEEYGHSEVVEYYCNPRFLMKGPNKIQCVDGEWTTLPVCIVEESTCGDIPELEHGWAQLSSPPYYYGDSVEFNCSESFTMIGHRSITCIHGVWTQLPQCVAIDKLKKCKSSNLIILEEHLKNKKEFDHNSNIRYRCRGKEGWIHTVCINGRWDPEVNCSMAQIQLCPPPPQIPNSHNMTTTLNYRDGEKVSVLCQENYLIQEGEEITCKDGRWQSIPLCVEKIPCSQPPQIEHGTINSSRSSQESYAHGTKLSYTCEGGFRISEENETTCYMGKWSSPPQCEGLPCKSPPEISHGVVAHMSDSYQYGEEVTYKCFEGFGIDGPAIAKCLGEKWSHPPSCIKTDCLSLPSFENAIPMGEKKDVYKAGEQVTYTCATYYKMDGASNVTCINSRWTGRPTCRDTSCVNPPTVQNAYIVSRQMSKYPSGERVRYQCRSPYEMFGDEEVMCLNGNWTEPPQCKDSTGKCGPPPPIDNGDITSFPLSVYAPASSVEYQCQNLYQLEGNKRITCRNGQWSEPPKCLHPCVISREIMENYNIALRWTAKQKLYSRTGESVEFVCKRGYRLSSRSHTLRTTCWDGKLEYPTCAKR

[2] = biological target: T1, recombinant human complement factor H …; assay: SPR; steady state

Binder	Kd [1] [nM]	Kd [2] [nM]
B1	120	–
B2	–	35
B3	421	–
